According to US20200405829:

Key:
wild-type RNase 1 = system: T1, wild-type RNase 1
T1 sequence: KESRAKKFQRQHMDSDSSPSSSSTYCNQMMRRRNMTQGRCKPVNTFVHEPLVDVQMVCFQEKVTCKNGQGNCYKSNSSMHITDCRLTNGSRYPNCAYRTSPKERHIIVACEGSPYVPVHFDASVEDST

[1] = system: T2, Str4 circular zymogen of RNase 1
T2 sequence: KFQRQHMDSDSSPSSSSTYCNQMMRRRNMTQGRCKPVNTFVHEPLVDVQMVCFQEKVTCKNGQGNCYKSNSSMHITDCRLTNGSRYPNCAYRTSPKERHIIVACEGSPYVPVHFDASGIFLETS

[2] = system: T3, Str2 circular zymogen of RNase 1
T3 sequence: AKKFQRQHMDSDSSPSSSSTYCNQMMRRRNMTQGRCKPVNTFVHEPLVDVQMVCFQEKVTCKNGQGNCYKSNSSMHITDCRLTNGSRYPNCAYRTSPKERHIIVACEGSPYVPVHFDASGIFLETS

[3] = system: T4, Str3 circular zymogen of RNase 1
T4 sequence: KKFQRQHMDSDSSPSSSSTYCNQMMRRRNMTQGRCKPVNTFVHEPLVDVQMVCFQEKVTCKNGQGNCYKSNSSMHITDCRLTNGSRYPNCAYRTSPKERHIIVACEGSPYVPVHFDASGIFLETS

HIV-1 protease
proteolytic cleavage after 3 hours of treatment at 37° C. (wild-type RNase 1): no detectable cleavage of wild-type RNase 1 was observed | kcat/KM (HIV-1 protease) [1]: 2500 M⁻¹ s⁻¹ | kcat/KM (HIV-1 protease) [2]: 3900 M⁻¹ s⁻¹ | kcat/KM (HIV-1 protease) [3]: 1300 M⁻¹ s⁻¹
